Results taken from PMC5565510 (Journal of molecular biology, 2017).
Where a chain is given by its changes, count along the chain named.

B1: SisPINAK261A, Walker A mutant of SisPINA (enzyme, Sulfolobus islandicus REY15A, UniProt F0NID4 1-505, looked up)
chain: MNDLMLDKSALLFGVSKYLEKGIITGNVLIHKSLLAELERESNDGLVSAEIALDEVKKLKDITERILVNFEIVGDDSKKGEANELSREYCLEKGCIIVTADETQKKICDAMGIQYNFLQPLKQGLSFESFFDDETMSLHIKEDTVPRAKKGKPGNWKFVNLSDKPMLSTDVRMIANEIINAVRLIKGSFVEIERRGSLIIQLGNYRVVITRPPLSDGWEITITRPVVRKRLEDYNLDERLIKRLEERAEGIIIAGAPGMGATTFAQALAEYYMRLGKIVKTIESPRDMHLPPEITQYSKNYAEIGELHDILLLSRPDYTVYDEMRNDEDFKLYVDLRLAGVGMVGVVHATSPIDAIHRFVNRVDIGTIPNILDTIIFINSGNVSKVYTLEMTVKVPAGLKEADLARPVVEIKDLATGNTEYEIYVFGEQTMIVPVNRGITMSNMEFKISKIVNNIIPNATVKYEDGEYVIVIPKEEIGKYNRKLVQRLKRLEKKNNIKIKIKLSD
B2: N-terminal His-tagged SisHjc (enzyme, Sulfolobus islandicus REY15A, UniProt F0NID3 1-143, looked up)
chain: MNAKKRKGSAVERNIVGKLRDKGFAVVRAPASGSKRKDPIPDIIALKSGVIILIEMKSRKDKEGKIYVRREQAEGIMEFARKSGGTLFLGVKKPGVLKFIPFDKLRRTETGNYVADSEIEGLDLEDLVRLVEAKVSKTLDNFL

Tests used:
crystal structure = target: the molecule itself; assay: crystal structure
[1] = target: T1, Sulfolobus islandicus PilT N-terminal-domain-containing ATPase (SisPINA), untagged (Sulfolobus islandicus REY15A, UniProt F0NID4 1-505); assay: pull-down
T1 sequence (looked up): B1 chain with A261K

Binder	stoichiometry N (crystal structure)	binding result [1]
B1	6	–
B2	–	binds
